To fix the notation:
B1: TSHZ3-HA wild-type (teashirt zinc finger homeobox 3) [human] / MYOCD-Flag (myocardin) [not stated] (parent complex)
chain 1: MPRRKQQAPRRAAAYVSEELKAAALVDEGLDPEEHTADGEPSAKYMCPEKELARACPSYQNSPAAEFSCHEMDSESHISETSDRMADFESGSIKNEEETKEVTVPLEDTTVSDSLEQMKAVYNNFLSNSYWSNLNLNLHQPSSEKNNGSSSSSSSSSSSCGSGSFDWHQSAMAKTLQQVSQSRMLPEPSLFSTVQLYRQSSKLYGSIFTGASKFRCKDCSAAYDTLVELTVHMNETGHYRDDNHETDNNNPKRWSKPRKRSLLEMEGKEDAQKVLKCMYCGHSFESLQDLSVHMIKTKHYQKVPLKEPVTPVAAKIIPATRKKASLELELPSSPDSTGGTPKATISDTNDALQKNSNPYITPNNRYGHQNGASYAWHFEARKSQILKCMECGSSHDTLQELTAHMMVTGHFIKVTNSAMKKGKPIVETPVTPTITTLLDEKVQSVPLAATTFTSPSNTPASISPKLNVEVKKEVDKEKAVTDEKPKQKDKPGEEEEKCDISSKYHYLTENDLEESPKGGLDILKSLENTVTSAINKAQNGTPSWGGYPSIHAAYQLPNMMKLSLGSSGKSTPLKPMFGNSEIVSPTKNQTLVSPPSSQTSPMPKTNFHAMEELVKKVTEKVAKVEEKMKEPDGKLSPPKRATPSPCSSEVGEPIKMEASSDGGFRSQENSPSPPRDGCKDGSPLAEPVENGKELVKPLASSLSGSTAIITDHPPEQPFVNPLSALQSVMNIHLGKAAKPSLPALDPMSMLFKMSNSLAEKAAVATPPPLQSKKADHLDRYFYHVNNDQPIDLTKGKSDKGCSLGSVLLSPTSTAPATSSSTVTTAKTSAVVSFMSNSPLRENALSDISDMLKNLTESHTSKSSTPSSISEKSDIDGATLEEAEESTPAQKRKGRQSNWNPQHLLILQAQFAASLRQTSEGKYIMSDLSPQERMHISRFTGLSMTTISHWLANVKYQLRRTGGTKFLKNLDTGHPVFFCNDCASQIRTPSTYISHLESHLGFRLRDLSKLSTEQINSQIAQTKSPSEKMVTSSPEEDLGTSYQCKLCNRTFASKHAVKLHLSKTHGKSPEDHLLYVSELEKQ
chain 2: MTLLGSEHSLLIRSKFRSVLQLRLQQRRTQEQLANQGIIPPLKRPAEFHEQRKHLDSDKAKNSLKRKARNRCNSADLVNMHILQASTAERSIPTAQMKLKRARLADDLNEKIALRPGPLELVEKNILPVDSAVKEAIKGNQVSFSKSTDAFAFEEDSSSDGLSPDQTRSEDPQNSAGSPPDAKASDTPSTGSLGTNQDLASGSENDRNDSASQPSHQSDAGKQGLGPPSTPIAVHAAVKSKSLGDSKNRHKKPKDPKPKVKKLKYHQYIPPDQKAEKSPPPMDSAYARLLQQQQLFLQLQILSQQQQQQQHRFSYLGMHQAQLKEPNEQMVRNPNSSSTPLSNTPLSPVKNSFSGQTGVSSFKPGPLPPNLDDLKVSELRQQLRIRGLPVSGTKTALMDRLRPFQDCSGNPVPNFGDITTVTFPVTPNTLPNYQSSSSTSALSNGFYHFGSTSSSPPISPASSDLSVAGSLPDTFNDASPSFGLHPSPVHVCTEESLMSSLNGGSVPSELDGLDSEKDKMLVEKQKVINELTWKLQQEQRQVEELRMQLQKQKRNNCSEKKPLPFLAASIKQEEAVSSCPFASQVPVKRQSSSSECHPPACEAAQLQPLGNAHCVESSDQTNVLSSTFLSPQCSPQHSPLGAVKSPQHISLPPSPNNPHFLPSSSGAQGEGHRVSSPISSQVCTAQMAGLHSSDKVGPKFSIPSPTFSKSSSAISEVTQPPSYEDAVKQQMTRSQQMDELLDVLIESGEMPADAREDHSCLQKVPKIPRSSRSPTAVLTKPSASFEQASSGSQIPFDPYATDSDEHLEVLLNSQSPLGKMSDVTLLKIGSEEPHFDGIMDGFSGKAAEDLFNAHEILPGPLSPMQTQFSPSSVDSNGLQLSFTESPWETMEWLDLTPPNSTPGFSALTTSSPSIFNIDFLDVTDLNLNSSMDLHLQQW
B2: TSHZ3-HA wild-type (teashirt zinc finger homeobox 3) [human] / SOX9-Flag (SRY-box transcription factor 9) [not stated] (parent complex)
chain 1: B1 chain 1
chain 2: MNLLDPFMKMTDEQEKGLSGAPSPTMSEDSAGSPCPSGSGSDTENTRPQENTFPKGEPDLKKESEEDKFPVCIREAVSQVLKGYDWTLVPMPVRVNGSSKNKPHVKRPMNAFMVWAQAARRKLADQYPHLHNAELSKTLGKLWRLLNESEKRPFVEEAERLRVQHKKDHPDYKYQPRRRKSVKNGQAEAEEATEQTHISPNAIFKALQADSPHSSSGMSEVHSPGEHSGQSQGPPTPPTTPKTDVQPGKADLKREGRPLPEGGRQPPIDFRDVDIGELSSDVISNIETFDVNEFDQYLPPNGHPGVPATHGQVTYTGSYGISSTAATPASAGHVWMSKQQAPPPPPQQPPQAPPAPQAPPQPQAAPPQQPAAPPQQPQAHTLTTLSSEPGQSQRTHIKTEQLSPSHYSEQQQHSPQQIAYSPFNLPHYSPSYPPITRSQYDYTDHQNSSSYYSHAAGQGTGLYSTFTYMNPAQRPMYTPIADTSGVPSIPQTHSPQHWEQPVYTQLTRP

In the first assay the parent is B1. Briefly: co-immunoprecipitation (anti-HA beads), Western blot densitometry; parent: 1; read off a plot.
As for chain 1 A65T, the response was ~1.5 MYOCD-Flag / TSHZ3-HA in IP.

As to chain 1 S58G, the response is ~1.9 MYOCD-Flag / TSHZ3-HA in IP.

chain 1 P63L: the response was ~1.6 MYOCD-Flag / TSHZ3-HA in IP.

In a further assay the parent is B2. Described as above.
Take chain 1 P63L: the response is ~1.1 SOX9-Flag / TSHZ3-HA in IP.

Turning to chain 1 S58G, the response is ~0.46 SOX9-Flag / TSHZ3-HA in IP.

Regarding chain 1 A65T, the response is ~1.4 SOX9-Flag / TSHZ3-HA in IP.

Source of the values: PMC11711546 (2024).
